According to article PMC8928434, “Production of Putrescine and Cadaverine by Paucilactobacillus wasatchensis” (Frontiers in Microbiology, 2022):

Legend:
Odc2_C19 (Odc2) = details: 50 mM phosphate pH 5.5, 50 μM pyridoxal 5'-phosphate, 37°C; substrate 1-50 mM
From the text: HPLC of o-phthalaldehyde-derivatized amine product (decarboxylation), Michaelis-Menten fit on Odc2_C19 (Odc2)

[1] = substrate: NCCCC[C@H](N)C(=O)O; assay: HPLC of o-phthalaldehyde-derivatized amine product (decarboxylation), Michaelis-Menten fit; assay type: biochemical, Paucilactobacillus wasatchensis; details: 50 mM phosphate pH 5.5, 50 μM pyridoxal 5'-phosphate, 37°C, substrate 1-50 mM
From the text: HPLC of o-phthalaldehyde-derivatized amine product (decarboxylation), Michaelis-Menten fit on Odc1_Lw35 (Odc1)

Molecule	Km (Odc2_C19 (Odc2))	Km [1]	kcat [1]
NCCCC[C@H](N)C(=O)O [L-Lysine]	20.2 mM	–	–
Odc1_Lw35 (Odc1) (Paucilactobacillus wasatchensis) (protein, full length (native 726 aa), C-terminal His-tag (pEG-His1, BamHI/SalI), E. coli BL21(DE3), Ni-TED purified) MKLLGIACSEEAQKYFKTTRDIIDAEKDSDFTDVAAIVLTEDDLDLINKIDETHFDIPVFLITNDAAKIDKDLRAKIYHLIDDDAKYTNMYDGEIEAAAVEYEKKMMPPFFEELQKYADEGNLSFTTPGHHAGKFFMRHPAGRWLVNYYGENLFRSDLSSSDVAVGDLLTHGGAPLSAEQHAAKVFNADKTYFVMNGTSTSNAIVTSAAVAPGDLVLFDRNNHKSSYISALENAGGIPIYLQTERNPFGFIGGISDAVFNEKHIRELIAKVDPKRAKEKRPIRLAIIELGTYDGSIYDARQVVDRIGSLCDYIQFDSAWVGYEQFIPMMKPSSPLLLDLGPEDPGILVTQSVHKQQAALSQGSQIHKKDKHIKGQKRYITHKRFNNAYMKYTSTSPFYPMYASLDVNAYLMEGKAGAEMWKNTVKLGIEARKRMLNESKLFTPFIPTVVNGKKWEDGDTEEMADNLDFWRFKKGESWHSFEGYADNQYYIDPLKVMFKTPGINMETGEYEDFGIPATILASYLREHGIVPEKSDLNSILFLLTPAETKTKLDNLVNLILRFEDLIEKDEKLENVLPHVYADNASRYRGYTIRQLCQEMHNFYKQSNAKKFQKELFQEATLPEQAMTPYAADKELIRNNAELIPLQDIVGRVALEGGLPYPPGIFVIAPGERWTESAQKYFLILQDGINQFPGFSPEIQGVYNEPQADGKVKAYGYVLDDESVIKKN	–	16.0 ± 1.8 mM	3 ± 0.1 s⁻¹
